According to patent publication US20220064254A1 (Janssen / Centocor, published 2022):
Where a chain is given by its changes, count along the chain named.

B1: CAR17 (KL2B413_HL) (other)
chain: EVQLVESGGGLVQPGGSLRLSCAASGFTFSSYWMTWVRQAPGKGLEWVANIKQDGSERYYVDSVKGRFTISRDNAKNSLYLQMNSLRAEDTAVYYCARDQNYDILTGHYGMDVWGQGTTVTVSSGGSEGKSSGSGSESKSTGGSEIVLTQSPSFLSASVGDRVTITCRASQGISSYLSWYQQKPGKAPKLLIYATSTLQSGVPSRFSGSGSGTEFTLTISSLQPEDFATYYCQQLNSYPRTFGQGTKVEIKTSTPAPRPPTPAPTIASQPLSLRPEACRPAAGGAVHTRGLDFACDIYIWAPLAGTCGVLLLSLVITLYCKRGRKKLLYIFKQPFMRPVQTTQEEDGCSCRFPEEEEGGCELRVKFSRSADAPAYKQGQNQLYNELNLGRREEYDVLDKRRGRDPEMGGKPRRKNPQEGLYNELQKDKMAEAYSEIGMKGERRRGKGHDGLYQGLSTATKDTYDALHMQALPPR
notes: also called KL2B413 HL CAR; pBD000091628
B2: KL2B242 (antibody, human IgG4 S228P, lambda, F234A L235A, V domains shown)
VH: QVQLQESGPGLVKPSETLSLTCTVSGGSISSYYWSWLRQPAGSGLEWIGRLYVSGFTNYNPSLKSRVTLSLDPSRNQLSLKLSSVTAADTAVYYCAGDSGNYWGWFDPWGQGTLVTVSS
VL: SYELTQPPSVSVSPGETASITCSGDQLGENYACWYQQKPGQSPVLVIYQDSKRPSGIPERFSGSNSGNTATLTISGTQALDEADYYCQAWDNSIVVFGGGTKLTVLG
notes: also called KL2B242 (Fab); KL2B242 Fab
B3: KL2B467 (antibody, V domains shown)
VH: QVQLVESGGGVVQPGRSLRLSCAASGFTFSYYGMHWVRQAPGKGLEWVAFISYDGSNKYYADSVKGRFTISRDNSKNTLYLQMNSLRAEDTAVYYCAHLPYSGSYWAFDYWGQGTQVTVSS
VL: QSVLTQPPSVSVAPGQTASITCGGDNIGSKSVHWYQQKPGQAPVLVVYDNSDRPSGIPERFSGSNSGTTATLTISRVEAGDEADYYCQVWDSSSDHPVVFGGGTKVTVLG
notes: also called KL2B467 (Fab); KL2B467 Fab
B4: KL2B30 (antibody, V domains shown)
VH: QVQLQESGPGLVKPSETLSLTCTVSGGSISSYYWSWIRQPPGKGLEWIGYIYYSGSTNYNPSLKSRVTISVDTSKNQFSLKLSSVTAADTAVYYCAGTTIFGVVTPNFYYGMDVWGQGTTVTVSS
VL: DIQMTQSPSFLSASVGDRVTITCRASQGISSYLAWYQQKPGKAPKFLIYAASTLQSGVPSRFSGSGSGTEFTLTISSLQPEDFATYYCQQLNSYPLTFGGGTKVEIKR
notes: also called KL2B30 (Fab); KL2B30 Fab
B5: KL2B359 (scFv) (scFv, V domains shown)
VH: QVQLQESGPGLVKPSQTLSLTCTVSGNSITSDYAWNWIRQFPGKRLEWIGYISYSGSTTYNPSLKSRVTISRDTSKNQFSLKLSSVTAADTAVYYCATGYYYGSGFWGQGTLVTVSS
VL: EIVLTQSPATLSLSPGERATLSCRASESVEYFGTSLMHWYQQKPGQPPRLLIYAASNVESGIPARFSGSGSGTDFTLTISSVEPEDFAVYFCQQTRKVPYTFGGGTKVEIK
notes: also called Clone KL2B359; rehumanized 11B6
B6: CAR4 (HL_HCG5_LCB7_20AA) (other)
chain: QVQLQESGPGLVKPSDTLSLTCAVSGNSITSDYAWNWIRQFPGKGLEWMGYISYSGSTTYNPSLKSRVTISRDTSKNQFSLKLSSVTPVDTAVYYCATGYYYGSGFWGQGTLVTVSSGGSEGKSSGSGSESKSTGGSDIVLTQSPDSLAVSLGERATINCKASESVEYFGTSLMHWYQQKPGQPPKLLIYAASNRESGVPDRFSGSGSGTDFTLTISSVQAEDVAVYYCQQTRKVPYTFGQGTKLEIKTSTPAPRPPTPAPTIASQPLSLRPEACRPAAGGAVHTRGLDFACDIYIWAPLAGTCGVLLLSLVITLYCKRGRKKLLYIFKQPFMRPVQTTQEEDGCSCRFPEEEEGGCELRVKFSRSADAPAYKQGQNQLYNELNLGRREEYDVLDKRRGRDPEMGGKPRRKNPQEGLYNELQKDKMAEAYSEIGMKGERRRGKGHDGLYQGLSTATKDTYDALHMQALPPR
notes: also called construct 4; pDR000083437
B7: CAR3 (HL_HCF3_LCB7_20AA) (other)
chain: B6 chain with M49I
notes: also called construct 3; pDR000083436
B8: CAR1 (HL_HCG5_LCD6_20AA) (other)
chain: B6 chain with S217Q, A225S, Y228F
notes: also called construct 1; pDR000083431
B9: CAR2 (HL_HCG5_LCHumanized_20AA) (other)
chain: B6 chain with V219L
notes: also called construct 2
B10: CAR9 (LH_LCB7_HCG5_20AA) (other)
chain: DIVLTQSPDSLAVSLGERATINCKASESVEYFGTSLMHWYQQKPGQPPKLLIYAASNRESGVPDRFSGSGSGTDFTLTISSVQAEDVAVYYCQQTRKVPYTFGQGTKLEIKGGSEGKSSGSGSESKSTGGSQVQLQESGPGLVKPSDTLSLTCAVSGNSITSDYAWNWIRQFPGKGLEWMGYISYSGSTTYNPSLKSRVTISRDTSKNQFSLKLSSVTPVDTAVYYCATGYYYGSGFWGQGTLVTVSSTSTPAPRPPTPAPTIASQPLSLRPEACRPAAGGAVHTRGLDFACDIYIWAPLAGTCGVLLLSLVITLYCKRGRKKLLYIFKQPFMRPVQTTQEEDGCSCRFPEEEEGGCELRVKFSRSADAPAYKQGQNQLYNELNLGRREEYDVLDKRRGRDPEMGGKPRRKNPQEGLYNELQKDKMAEAYSEIGMKGERRRGKGHDGLYQGLSTATKDTYDALHMQALPPR
notes: also called construct 9; pDR000083444
B11: CAR7 (LH_LCHumanized_HCG5_20AA) (other)
chain: B10 chain with V82L
notes: also called construct 7; pDR000083441
B12: CAR10 (LH_LCD6_HCF3_20AA) (other)
chain: B10 chain with S80Q, A88S, Y91F, M180I
notes: also called construct 10; pDR000083446
B13: CAR8 (LH_LCB7_HCF3_20AA) (other)
chain: B10 chain with M180I
notes: also called construct 8; pDR000083443
B14: CAR5 (LH_LCD6_HCG5_20AA) (other)
chain: B10 chain with S80Q, A88S, Y91F
notes: also called construct 5; pDR000083438
B15: CAR6 (LH_LCHumanized_HCF3_20AA) (other)
chain: B10 chain with V82L, M180I
notes: also called construct 6; pDR000083440
B16: KL2B413 (scFv) (scFv, V domains shown)
VH: EVQLVESGGGLVQPGGSLRLSCAASGFTFSSYWMTWVRQAPGKGLEWVANIKQDGSERYYVDSVKGRFTISRDNAKNSLYLQMNSLRAEDTAVYYCARDQNYDILTGHYGMDVWGQGTTVTVSS
VL: EIVLTQSPSFLSASVGDRVTITCRASQGISSYLSWYQQKPGKAPKLLIYATSTLQSGVPSRFSGSGSGTEFTLTISSLQPEDFATYYCQQLNSYPRTFGQGTKVEIK
B17: KL2B494 (antibody, V domains shown)
VH: QVQLVESGGGLVQPGGSLRLSCAASGFTFSHYAMSWVRQAPGKGLEWVSTIGGSGGSTYYADSVKGRFTISRDNSKNTLYLQMNSLRAEDTAVYYCAKPHIVMVTALLYDGMDVWGQGTMVTVSS
VL: SSELTQPPSVSVAPGQTARITCGGNNIGSKSVHWYQQKPGQAPVLVVYDDSDRPSGIPERFSGSNSGNTATLTISRVEAGDEADYYCQVWDSSSDHVVFGGGTKLTVLG
notes: also called KL2B494 (Fab); KL2B494 Fab
B18: KL2B53 (antibody, V domains shown)
VH: EVQLVESGGGVVQPGRSLRLSCVASGFTFSSYDIHWVRQAPGKGLEWVAIISYDGSKKDYTDSVKGRFTISRDNSKNTLYLQMDSLRVEDSAVYSCARESGWSHYYYYGMDVWGQGTMVTVSS
VL: DIVMTQSPSSLSASVGDRVTITCRASQDISNYLAWYQQKPGKVPKFLIYAASTLHSGVPSRFSGSGSGTDFTLTISSLQPEDVATYYCQKYNSAPYTFGQGTRLEIKR
notes: also called KL2B53 (Fab); KL2B53 Fab

Legend:
[1] = target: hK2 on target cells (VCaP, LNCaP/hK2, LNCaP, C4-2B) (human, UniProt P20151 19-261); assay: cell-based or functional assay
Sequence of hK2 on target cells (VCaP, LNCaP/hK2, LNCaP, C4-2B) (P20151 19-261): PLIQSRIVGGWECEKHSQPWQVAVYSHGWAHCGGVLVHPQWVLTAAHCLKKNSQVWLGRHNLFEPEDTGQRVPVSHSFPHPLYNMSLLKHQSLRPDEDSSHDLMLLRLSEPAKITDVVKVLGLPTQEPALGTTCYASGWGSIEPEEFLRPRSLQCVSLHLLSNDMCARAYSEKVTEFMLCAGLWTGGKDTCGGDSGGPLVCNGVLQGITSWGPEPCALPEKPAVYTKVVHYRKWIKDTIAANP

[2] = target: T1, biotinylated recombinant hK2 protein (human, UniProt P20151 25-261, biotin label (EZ-Link Sulfo-NHS-LC-Biotin)); assay: flow cytometry; primary human T cells lentivirally transduced with the CAR (MOI 3), day 14, stained with biotinylated hK2 (1 ug/ml) then streptavidin-PE; UTD control gate 0.065
T1 construct: In-house biotin-labelled recombinant hK2 used as the flow cytometry reagent; also called biotinylated hK2; Biotin-Hk2 protein
T1 sequence (P20151 25-261): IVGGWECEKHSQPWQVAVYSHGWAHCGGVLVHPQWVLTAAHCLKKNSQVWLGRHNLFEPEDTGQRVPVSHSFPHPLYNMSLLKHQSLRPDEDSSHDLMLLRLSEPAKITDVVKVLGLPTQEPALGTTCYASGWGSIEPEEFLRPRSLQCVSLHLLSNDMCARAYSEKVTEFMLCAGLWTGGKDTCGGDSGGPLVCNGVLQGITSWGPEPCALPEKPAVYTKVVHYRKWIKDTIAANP

[3] = target: T1, biotinylated recombinant hK2 protein; assay: flow cytometry; CAR-transduced JNL cells stained with biotinylated hK2 and streptavidin-PE
[4] = target: T2, soluble human Kallikrein-2 (hK2) (human, UniProt P20151 25-261); assay: SPR; antibody captured on anti-Fc sensor chip, soluble hK2 injected; 1:1 Langmuir fit, KD = koff/kon
T2 construct: The construct used in SPR, ELISA and MSD screening is not defined; the stated signal peptide (1-18) is left out, and the pro-peptide (19-24) may or may not have been present; also called KLK2; soluble hK2
T2 sequence (P20151 25-261): as above

[5] = target: T1, biotinylated recombinant hK2 protein; assay: flow cytometry; JNL (Jurkat NFAT-luciferase) cells transduced with the CAR, stained with biotinylated hK2 then streptavidin-PE; UTD control gate 0.021
[6] = target: T1, biotinylated recombinant hK2 protein; assay: flow cytometry; primary human T cells lentivirally transduced with the CAR (MOI 3), day 14, stained with biotinylated hK2 (1 µg/ml) then streptavidin-PE; UTD control gate 0.086

Binder	Kd [4]	percent of cells in the PE-positive gate (hK2 CAR) [5]	percent of CD3+ T cells in the PE-positive gate (hK2 CAR) [6]	other results
B1				tumor cell growth inhibition (TGI, %) of hK2 positive VCaP cells, real-time IncuCyte killing assay, 96 hours [1]: ~100%; percent of CD3+ T cells in the PE-positive gate (hK2 CAR) [2]: 56%; % of JNL cells stained with biotinylated hK2 (reported as CAR expression) [3]: 73.7%
B2	0.04 nM			
B3	0.078 nM			
B4	0.46 nM			
B5	0.7 to 1 nM			
B6		64.3%	42.7%	
B7		64.3%	29.4%	
B8		61.9%	20%	
B9		65.4%	23.6%	
B10		68%	30.6%	
B11		71.9%	35%	
B12		60%	20.1%	
B13		66.3%	21.5%	
B14		66.4%	17.9%	
B15		70.3%	27.8%	
B16	34.3 nM			
B17	0.053 nM			
B18	0.08 nM			
